# According to patent publication US20220073883A1, “COMPOSITIONS AND METHODS FOR GENERATION OF HEART FIELD-SPECIFIC PROGENITOR CELLS” (The Johns Hopkins University, priority 2018, published 2022):
# Entries after “also recorded” stand apart in the source; their conditions may differ.
# B1: Activin A: TGF-β protein; key ligand for Activin/TGF signaling (protein, UniProt P08476 311-426, looked up)
# Inhibin beta A chain: GLECDGKVNICCKKQFFVSFKDIGWNDWIIAPSGYHANYCEGECPSHIAGTSGSSLSFHSTVINHYRMRGHSPFANLKSCCVPTKLRPMSMLYYDDGQNIIKKDIQNMIVEECGCS
# modifications: Inhibin beta A chain
# B2: Wnt3A: Wnt protein (canonical) (protein, UniProt P56704 19-352, looked up)
# Protein Wnt-3a: SYPIWWSLAVGPQYSSLGSQPILCASIPGLVPKQLRFCRNYVEIMPSVAEGIKIGIQECQHQFRGRRWNCTTVHDSLAIFGPVLDKATRESAFVHAIASAGVAFAVTRSCAEGTAAICGCSSRHQGSPGKGWKWGGCSEDIEFGGMVSREFADARENRPDARSAMNRHNNEAGRQAIASHMHLKCKCHGLSGSCEVKTCWWSQPDFRAIGDFLKDKYDSASEMVVEKHRESRGWVETLRPRYTYFKVPTERDLVYYEASPNFCEPNPETGSFGTRDRTCNVSSHGIDGCDLLCCGRGHNARAERRREKCRCVFHWCCYVSCQECTRVYDVHTCK
# B3: Wnt5A: Wnt protein (noncanonical) (protein, UniProt P41221 62-380, looked up)
# Protein Wnt-5a: IIGAQPLCSQLAGLSQGQKKLCHLYQDHMQYIGEGAKTGIKECQYQFRHRRWNCSTVDNTSVFGRVMQIGSRETAFTYAVSAAGVVNAMSRACREGELSTCGCSRAARPKDLPRDWLWGGCGDNIDYGYRFAKEFVDARERERIHAKGSYESARILMNLHNNEAGRRTVYNLADVACKCHGVSGSCSLKTCWLQLADFRKVGDALKEKYDSAAAMRLNSRGKLVQVNSRFNSPTTQDLVYIDPSPDYCVRNESTGSLGTQGRLCNKTSEGMDGCELMCCGRGYDQFKTVQTERCHCKFHWCCYVKCKKCTEIVDQFVCK
# B4: Wnt11: Wnt protein (noncanonical) (protein, UniProt O96014 25-354, looked up)
# Protein Wnt-11: IKWLALSKTPSALALNQTQHCKQLEGLVSAQVQLCRSNLELMHTVVHAAREVMKACRRAFADMRWNCSSIELAPNYLLDLERGTRESAFVYALSAAAISHAIARACTSGDLPGCSCGPVPGEPPGPGNRWGGCADNLSYGLLMGAKFSDAPMKVKKTGSQANKLMRLHNSEVGRQALRASLEMKCKCHGVSGSCSIRTCWKGLQELQDVAADLKTRYLSATKVVHRPMGTRKHLVPKDLDIRPVKDSELVYLQSSPDFCMKNEKVGSHGTQDRQCNKTSNGSDSCDLMCCGRGYNPYTDRVVERCHCKYHWCCYVTCRRCERTVERYVCK
# B5: Noggin: blocks Bmps from binding their receptors (protein, UniProt Q13253 28-232, looked up)
# Noggin: QHYLHIRPAPSDNLPLVDLIEHPDPIFDPKEKDLNETLLRSLLGGHYDPGFMATSPPEDRPGGGGGAAGGAEDLAELDQLLRQRPSGAMPSEIKGLEFSEGLAQGKKQRLSKKLRRKLQMWLWSQTFCPVLYAWNDLGSRFWPRYVKVGSCFSKRSCSVPEGMVCKPSKSVHLTVLRWRCQRRGGQRCGWIPIQYPIISECKCSC
# Legend:
# Assay type in all cases: cell-based, mouse
# [1] = tested on: ESC-derived cardiac spheroids; experiment: qPCR of FHF (tbx5, hcn4) and SHF (tbx1, fgf10) markers in treated spheroids; conditions: in combination with Bmp4 (1.25 ng/ml), Wnts 100 ng/ml, dorsomorphin, K2288, DMH1 100 nM; for expression of SHF markers (tbx1, fgf10): IWP-2 0.5 μM
# Method: To investigate the crosstalk between Bmp and Wnt signals, the spheroids were treated with Bmp4 and Wnts in combinations and analyzed expression levels of FHF (tbx5, hcn4) and SHF (tbx1, fgf10) markers.
# (§1) Mouse ESCs and human iPSCs were maintained and differentiated as previously described^5, 43, 68 Briefly, mESCs were maintained on gelatin-coated dishes in maintenance medium (Glasgow minimum essential medium supplemented with 10% fetal bovine serum and […] Chir99021 and 1 μM PD98059 or 1000 U/ml ESGRO (Millipore, Billerica, Mass.), Glutamax, sodium pyruvate, MEM non-essential amino acids (Thermo Fisher Scientific). For spheroid formation and differentiation, mouse ESCs were plated in IMDM/Ham's F12 (Cellgro) (3:1) supplemented with N2, B27, penicillin/streptomycin, 2 mM GlutaMAX, 0.05% BSA, 5 ng/ml L-ascorbic acid (Sigma-Aldrich) and α-monothioglycerol (MTG; Sigma-Aldrich) at a final density of 100,000 cells/ml to allow spheroid formation. After 48 h spheroids were collected and transferred to ultra-low attachment plastic surface and induced for 40 hours with Activin A, Bmp4, Wnt3A, Wnt5A, Wnt11 (R&D Systems) alone or in combination. Human iPSCs were maintained in Geltrex-coated T25 flasks using Essential 8 medium. For spheroid formation and differentiation, hiPSCs were plated in RPMI plus B27 minus insulin with Bmp4 and CHIR99021 and incubated for 48 h. After 48 h media was changed to RPMI plus B27 minus insulin. The hiPSC line used in this study was developed by Dr. Linzhao Cheng, the Johns Hopkins University, and had was generated from a de-identified patient using an approved IRB protocol.
# RNA isolation was performed using either RNeasy Micro Kit (Cat #74004, Qiagen) or […]® PicoPure® RNA Isolation Kit following the manufacturer's instructions, and cDNA was generated using the high-capacity cDNA reverse transcription kit (Applied Biosystems). qPCR reactions were performed using the Taqman (Applied Biosystems) or Sybr Select qPCR mix (Thermo Fisher) with indicated primers. Gene expression levels were normalized to Gapdh. For the clonal cell-fate analysis, single Isl1-Cre RFP+, Cxcr4− and Isl1-Cre RFP^+, Cxcr4^+ cells were sorted at day 5.5 into 384-well plates and allowed to grow and differentiate for 7 days. […] RNA was isolated from 24 wells with colonies from Cxcr4− and Cxcr4+ sorted cells, respectively. Ct values<30 were considered positive. All samples were also analyzed for gapdh to exclude false-positive results.
# [2] = tested on: canonical Wnt activity; experiment: Topflash luciferase assay; conditions: in combination with Bmp4 (1.25 ng/ml); 88 h of differentiation
# Method: To test this, canonical Wnt activity was measured with its readout Topflash.
# For Tbx1 and Tbx5 knockdown experiments, Tbx1 and Tbx5 ON-TARGETplus SMARTpool siRNA or scrambled siRNA (Dharmacon/Thermo Fisher Scientic) was used at 5 nM for cell transfection. Cells were transfected with Lipofectamine LTX (Life Technologies) in single-cell suspensions. For TOP-flash luciferase assays, mESCs were transfected with Topflash constructs and Renilla constructs and analyzed as previously described 5.
# [3] = tested on: ESC-derived cardiac spheroids (Hcn4-GFP; Tbx1-Cre; Ai9); experiment: heart field specification: Hcn4-GFP+ and Tbx1-Cre, RFP+ CPCs in cardiac spheroids by FACS at day 5.5; conditions: for Bmp4-mediated induction of RFP+ cells (SHF) / Bmp4-mediated induction of GFP+ cells (FHF): in combination with Bmp4 (1.25 ng/ml), Noggin 100 ng/ml, dorsomorphin, K2288, DMH1 100 nM; for Bmp4-mediated induction of RFP+ cells (SHF): IWP-2 0.5 μM; for induction of GFP+ cells (FHF) / induction of RFP+ cells (SHF): increasing levels of the factor, day 5.5
# From the text: (§2) Next, an embryonic stem cell (ESC) line (ESCHcn4-GFP; Tbx1-Cre Ai9) was established from the mice to determine if heart field specification can be recapitulated in a PSC system. It was hypothesized that a 3D multicellular system would better resemble heart field development in vivo, as early development is a highly dynamic process that involves tissue-tissue interactions between multiple cell types. Since CPCs are specified during mid-late gastrulation 7, 8, multicellular 3D spheroids were generated with the PSCs and treated them with various concentrations of Activin A and Bmp4 to determine whether induction of the early mesoderm influences heart field specification (FIGS. 1C and 1D).
# IPA utilizes an input gene list and a curated database of literature-derived pathways to infer which canonical pathways are most significant to the input data set. The analysis was focused on pathways related to ‘organism growth and development’. […] The effect of Bmp signals was evaluated during heart field specification. In order to minimize the possibility of influencing heart field cells after induction, all of the data were analyzed within 12 hs after the appearance of GFP^+/RFP^+ cells.
# as §1
# (§3) Mouse embryos (E7.75) were dissected using forceps under a stereomicroscope (Zeiss) and regions of interest were dissociated and harvested using TrypLE. Embryoid bodies (EBs) and cells were dissociated and harvested using TrypLE. Single-cells were analyzed for RFP/GFP expression or sorted using a SH800 Cell sorter (Sony Biotechnologies). Live cells were analyzed for RFP and GFP expression and stained with antibodies targeting for the presence of appropriate markers. […] Data was analyzed using FlowJo software.
# [4] = tested on: ESC-derived cardiac spheroids; experiment: cardiogenesis: cTnT+ cardiomyocytes in cardiac spheroids at day 9 (flow cytometry); conditions: varying/increasing concentrations; cTnT+ at day 9
# From the text: as §2, with “1D). After 5 days of differentiation (120 h), GFP+ and RFP+ cells started to appear in the spheroids. The spheroids were analyzed for GFP+ and RFP+ cells by fluorescent activated cell sorting (FACS) at day 5.5 (132 h). […] The double positive GFP+/RFP+ cells correlated with the total number of GFP+ and RFP+ cells (FIG. 6J) and were sporadically interspersed within the GFP+ domain (FIG. 6K).” for “1D).”
# The overall effects on cardiogenesis were evaluated by analyzing the number of cardiomyocytes at day 9 (FIG. 6L).
# as §1, with “After 48 h media was changed to RPMI plus B27 minus insulin. The hiPSC line used in this study was developed by Dr. Linzhao Cheng, the Johns Hopkins University, and had was generated from a de-identified patient using an approved IRB protocol.” left out
# as §3, with “Embryoid bodies (EBs) and cells were dissociated and harvested using TrypLE.” left out
Molecule,"expression of SHF markers (tbx1, fgf10) [1]","expression of FHF markers (tbx5, hcn4) [1]",topflash / Wnt activity [2],Bmp4-mediated induction of RFP+ cells (SHF) [3],Bmp4-mediated induction of GFP+ cells (FHF) [3],effect on cardiogenesis [4],induction of GFP+ cells (FHF) [3],induction of RFP+ cells (SHF) [3]
"CC(C)Oc1ccc(-c2cnc3c(-c4ccnc5ccccc45)cnn3c2)cc1 [DMH1, reference compound]",without significantly affecting,suppressed,without significantly affecting,without significantly affecting,suppressed,,,
"c1cc(-c2cnn3cc(-c4ccc(OCCN5CCCCC5)cc4)cnc23)ccn1 [dorsomorphin, reference compound]",,,no effect,,,,,
"Cc1ccc2nc(NC(=O)CSc3nc4c(c(=O)n3-c3ccccc3)SCC4)sc2c1 [IWP-2, reference compound]",suppressed,,,abolished,,,,
"COc1cc(-c2cc(-c3cccc(O)c3)cnc2N)cc(OC)c1OC [K2288, reference compound]",without significantly affecting,suppressed,without significantly affecting,without significantly affecting,suppressed,,,
B1,,,,,,modest effect; also recorded: did not have a significant effect,no apparent effect; also recorded: no overall effect,no apparent effect; also recorded: no overall effect
B2,further increase,reduction,further increased,,,,did not affect,increased numbers
B3,overall reduction,overall reduction,,,,,,
B4,overall reduction,overall reduction,,,,,,
B5,,,markedly reduced; also recorded: inhibition,abolished,abolished,,,
